Measurements published in publication PMC10621992.

Target: TBK1 (UniProt Q9UHD2)
Experiment: co-immunoprecipitation, immunoblot
Settings: reference: wild-type IRF3 + TBK1 + BLK; sites Y107

binding against the reference: weaker
Substance: IRF3 (from UniProt Q14653) IRF3(Y107F) + TBK1 + BLK
